According to US10337022B2, “Methods of increasing root biomass in plants” (Agresearch Limited, priority 2014, dated 2019):

Key:
[1] = target: T1, NINJA (Arabidopsis thaliana, UniProt Q9SV55); assay: Yeast two hybrid (Y2H) interaction with NINJA; assay type: binding; conditions: PPD1 as bait protein
T1 construct: expressed in transfected cells; host or cells: yeast strain MaV203
T1 sequence (Q9SV55 with tags, fused parts or gaps): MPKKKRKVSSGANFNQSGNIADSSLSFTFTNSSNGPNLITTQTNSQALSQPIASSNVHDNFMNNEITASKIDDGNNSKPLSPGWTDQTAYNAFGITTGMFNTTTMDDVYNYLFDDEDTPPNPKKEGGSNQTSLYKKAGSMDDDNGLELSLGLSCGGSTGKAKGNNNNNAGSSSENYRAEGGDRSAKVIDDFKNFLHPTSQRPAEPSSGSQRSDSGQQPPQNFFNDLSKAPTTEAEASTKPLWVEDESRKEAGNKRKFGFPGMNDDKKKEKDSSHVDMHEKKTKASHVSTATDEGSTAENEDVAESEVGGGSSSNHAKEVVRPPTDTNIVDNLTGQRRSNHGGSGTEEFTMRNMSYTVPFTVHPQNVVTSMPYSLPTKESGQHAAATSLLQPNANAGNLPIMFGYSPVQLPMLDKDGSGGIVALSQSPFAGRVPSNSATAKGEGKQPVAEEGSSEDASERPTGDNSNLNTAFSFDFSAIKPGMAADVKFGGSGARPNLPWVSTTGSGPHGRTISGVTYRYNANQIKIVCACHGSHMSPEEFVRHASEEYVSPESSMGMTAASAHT
Procedure: Combinations of bait and prey constructs were used to co-transform yeast strain MaV203 (Invitrogen), with selection on synthetic dropout (SD) SD/-Leu/-Trp agar plates. Transformed strains were tested for interactions using 10 μl droplets of 1 in 10 and 1 in 100 dilutions on SD/-Leu/-Trp/-His plates with different concentrations of 3-aminotriazol (3-AT) (Sigma).

[2] = target: T2, DELLA (RGA1) (Arabidopsis thaliana, UniProt Q9SLH3); assay: Yeast two-hybrid (Y2H) interaction with DELLA (RGA1); assay type: binding; conditions: PPD1-DBD as bait, selective medium with 15 mM 3AT
T2 construct: expressed in transfected cells; host or cells: yeast strain MaV203
T2 sequence (Q9SLH3 with tags, fused parts or gaps): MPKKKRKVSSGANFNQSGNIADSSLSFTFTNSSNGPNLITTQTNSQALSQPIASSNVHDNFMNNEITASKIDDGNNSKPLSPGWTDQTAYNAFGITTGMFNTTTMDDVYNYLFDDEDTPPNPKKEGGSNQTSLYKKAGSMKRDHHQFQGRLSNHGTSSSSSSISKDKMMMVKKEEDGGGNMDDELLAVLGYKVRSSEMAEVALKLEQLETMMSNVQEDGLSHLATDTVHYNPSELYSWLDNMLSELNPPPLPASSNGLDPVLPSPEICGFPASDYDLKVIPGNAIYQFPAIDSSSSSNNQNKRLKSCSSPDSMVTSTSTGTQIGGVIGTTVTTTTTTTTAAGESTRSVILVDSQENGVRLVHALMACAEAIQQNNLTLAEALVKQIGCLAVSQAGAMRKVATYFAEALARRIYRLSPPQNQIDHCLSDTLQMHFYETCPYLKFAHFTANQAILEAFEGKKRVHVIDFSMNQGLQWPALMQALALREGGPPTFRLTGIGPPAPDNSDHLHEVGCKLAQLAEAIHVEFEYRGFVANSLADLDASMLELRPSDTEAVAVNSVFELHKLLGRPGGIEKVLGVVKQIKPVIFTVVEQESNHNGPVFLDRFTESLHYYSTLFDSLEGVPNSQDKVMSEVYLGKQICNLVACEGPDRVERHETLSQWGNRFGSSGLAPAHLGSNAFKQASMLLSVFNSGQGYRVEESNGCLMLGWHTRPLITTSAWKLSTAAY
Description: The ProQuest two-hybrid system (Invitrogen) was used to analyse interactions between PPD1, and RGA1. Full length coding sequences of PPD1, together with truncation or deletion derivatives of PPD1 (PPD1Δppd, PPD1Δtify, and PPD1Δjas*) (FIG. 4), were Gateway sub-cloned into pDEST32 (N-terminal GAL4DBD) or pDEST22 (N-terminal GAL4AD). When translated these generated the following peptide sequences od SEQ ID NO: 58, 68, 69, 70, 71, 72, which are PPD1-DBD, RGA1, RGA1-AD, PPD1-ppd-DBD, PPD1-tify-DBD, PP1-jas*-DBD respectively.
Combinations of bait and prey constructs were used to co-transform yeast strain MaV203 (Invitrogen), with selection on synthetic dropout (SD) SD/-Leu/-Trp agar plates. Transformed strains were tested for interactions using 10 μl droplets of 1 in 10 and 1 in 100 dilutions on SD/-Leu/-Trp/-His plates with different concentrations of 3-aminotriazol (3-AT) (Sigma). The PPD1-RGA1 interaction was tested with PPD1-DBD used as bait. Transformed yeast was spotted as a ten-fold dilution on control medium (−2) or selective medium (−3) with 15 mM 3AT. Controls were empty vectors, DBD, GAL4 DNA binding domain, AD, GAL4 activation domain (FIG. 4).

B1: Arabidopsis PPD: Arabidopsis thaliana PEAPOD 1 protein, At4g14713, SEQ ID NO: 1 (protein, listed as Arabidopsis thaliana)
chain: MDVGVSPAKSILAKPLKLLTEEDISQLTREDCRKFLKDKGMRRPSWNKSQAIQQVLSLKALYEPGDDSGAGIFRKILVSQPVNPPRVTTTLIEPSNELEACGRVSYPEDNGACHRMDSPRSAEFSGGSGHFVSEKDGHKTTISPRSPAETSELVGQMTIFYSGKVNVYDGIPPEKARSIMHFAANPIDLPENGIFASSRMISKLISKEKMMELPQKGLEKANSSRDSGMEGQANRKVSLQRYREKRKDRKFSKAKKCPGVASSSLEMFLNCQPRMKAAYSQNLGCTGSPLHSQSPESQTKSPNLSVDLNSEGI
[1]
  Y2H interaction with NINJA: direct interactor
[2]
  Y2H binding to DELLA (RGA1): can directly bind
